{
  "source": "paper PMC9767379",
  "about": "“Homologous chromosomes are stably conjoined for Drosophila male meiosis I by SUM, a multimerized protein assembly with modules for DNA-binding and for separase-mediated dissociation co-opted from cohesin” (PLOS Genetics, 2022)",
  "binders": {"B1": {"name": "MBP-UNO_N (domain or fragment, D. melanogaster, UniProt Q7JQU5 1-73, looked up)", "chain": "MPALTHQILTMQRAPPLNLSFKIQLLSGQNVILVECSGYESELFLPQIVGERITMQNVIQDRRCCAESMLLRD", "notes": "UNO, D. melanogaster, N-terminal domain aa 1-73; found as a tetramer (SEC peak 1) and as a dimer (SEC peak 2); source: E. coli BL21, purified (amylose/MBP Trap, ion exchange, SEC); not shown: His6, N-terminal, kept; MBP, N-terminal, kept"}, "B2": {"name": "MBP-SNM (natural protein, D. melanogaster, UniProt Q9W0F4 1-973, looked up)", "chain": "MSDISFDDAVLNDSQASNQMDFEIREECSIAPNDEPVCVDGTVGDATNKSLLQMILSRKRLSPTNKRNSHIESVAKYWGEFYLDSPTAALVALLQFVVEVSGSHYQIPDDTSMPFSYSDILSNSSSHFSNTHIYPLIRKPADVFVNQVGSFLNALLLVANKFRSDSYQLFLVQLTNFVMACSESNIRTFRHTATMIGLKIMTILSDLKSLDDEIAMTVWMQMFNSMFVARSRDIVTDIRLLCISELGQWFARYPHCHLQPTSLRIFYEALNDGSGDVIQCSLDNISVLCRKDVLFSEIVALTSEFREILVELCLGKEDAIAEKSVQFLTHFHVLSAEILTDDVCRVLEQLIMAANRGLAQAAADLFILRRNGLDGETFCQRVKHLLQLFIECGHEQADYLVDSLIDNCELVLDWKSMIAVLLENPKSRELSDIHCSSLIAILLAGVKQATAGEIPPGRYTKDLKREPRQGAQERATKCLAPVLPELLRTYANRLQDIERLLELPKYFCFDYYHEQNRMGQLNELVEHFELIIFDQTSSTTVLQITVKTLEFLNRMIPIPLTKQLLNSAVTNYKMAWHRTQDTSPSRSTHNESNRLLATLRLLTVLSGHFNLSKWDLTEPLLFSLKMLLRQRRLPNGDDLPPEAFSLYLKACFCCLCWDMENLEGTALNNVDMDEYCDVLHHNLEDYLYVTFSLVGKSNTEPLAYPCFSYTCDLFVLHGNLCGSSNPSIRSVAHVPSGNELDILEGFLMEHFLELSPSDLMLETNSDQLQRIRSILTSYLKVVCLGVVPTMRASKFYEYYVKYHAPFGDVMRCSMELALQRNPIHFAMTMLHTCLLLYAKVFPDDTRHAAGQRALRPAEFSELMELANRLAKILISNPMEHRECVIALHRSGILFVFELAQKQPTEATKKLPFLRVLKVFVPLLLVQDKTRILNFFEPYEQLIIPTCNRNDIAHLKEYRNALRPRKTKSYPQAT", "notes": "SNM (stromalin in meiosis; SA-2), D. melanogaster; source: purified (Strep-Tactin, SEC); not shown: MBP, N-terminal, kept"}, "B3": {"name": "Mod(mdg4)_CP (purified) (domain or fragment)", "chain": "MADDEQFSLCWNNFNTNLSAGFHESLCRGDLVDVSLAAEGQIVKAHRLVLSVCSPFFRKMFTQMPSNTHAIVFLNNVSHSALKDLIQFMYCGEVNVKQDALPAFISTAESLQIKGLTDND"}},
  "key": {"[1]": {"target": "the molecule itself", "assay": "SEC-MALS; purified protein alone, 50 μL at 5–10 μM, 50 mM HEPES pH 7.5, 1 mM TCEP, 300 mM NaCl"}, "Strep-II-UNO_C": {"target": "T1, Strep-II-UNO_C (D. melanogaster, UniProt Q7JQU5 281-417)", "T1 construct": "source: Hi5 insect cells, baculovirus, co-expressed with MBP-SNM; purified (Strep-Tactin, SEC); not shown: twin Strep-II, N-terminal, kept", "T1 sequence (looked up)": "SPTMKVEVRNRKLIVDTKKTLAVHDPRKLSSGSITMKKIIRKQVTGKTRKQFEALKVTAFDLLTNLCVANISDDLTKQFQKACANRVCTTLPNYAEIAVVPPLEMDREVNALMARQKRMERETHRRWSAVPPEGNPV", "assay": "SEC-MALS + other: mass photometry; purified SU_C complex; SEC-MALS in 50 mM HEPES pH 7.5, 1 mM TCEP, 300 mM NaCl, 5–10 μM; mass photometry in 30 mM HEPES pH 7.8, 150 mM NaCl, 3 μM diluted 1:100", "conditions": "both partners purified"}},
  "note": "Values joined by “and” are separate entries in the source; they are usually repeats but may differ in a detail not shown here. Equal entries are not always repeated.",
  "data": [
    {"binder": "B1", "values": [
      {"measurement": "stoichiometry N", "setting": "[1]", "result": "4 and 2"}
    ]},
    {"binder": "B2", "values": [
      {"measurement": "stoichiometry N", "setting": "Strep-II-UNO_C", "result": 1}
    ]},
    {"binder": "B3", "values": [
      {"measurement": "stoichiometry N", "setting": "[1]", "result": 6}
    ]}
  ]
}
